Results as given in article PMC12207370, “Macrocyclic Peptide Probes for Immunomodulatory Protein CD59: Potent Modulators of Bacterial Toxin Activity and Antibody‐Dependent Cytotoxicity” (Angewandte Chemie (International Ed. in English), 2025).

Target: T1, biotinylated CD59 (Homo sapiens, UniProt P13987)
T1 construct: Recombinant soluble human CD59 with an additional C-terminal cysteine residue
T1 sequence (P13987 26-102 limits assumed): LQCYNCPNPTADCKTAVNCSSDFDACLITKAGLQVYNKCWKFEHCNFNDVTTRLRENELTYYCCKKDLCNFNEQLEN
Assay: mRNA-display cyclic peptide screen against CD59-biotin, NGS abundance after 6th selection round
Details: for Counts (raw counts for peptide sequence), Seq I: NGS sample Seq I; for Counts (raw counts for peptide sequence), Seq I / Counts (raw counts for peptide sequence), Seq II / Counts Seq I / Counts Seq II: sheet R6 (6th selection round); for Counts (raw counts for peptide sequence), Seq II: NGS sample Seq II; for Percentage of the pool, averaged across the two sequencing samples: average of Seq I and Seq II; for Percentage of the pool, averaged across the two sequencing samples / Percentage of the pool, Seq I / Percentage of the pool, Seq II / Percentage Seq I / Percentage Seq II / Percentage Average: sheet R6; for Percentage of the pool, Seq I: counts normalised by total counts of NGS sample Seq I; for Percentage of the pool, Seq II: counts normalised by total counts of NGS sample Seq II; for Percentage Seq I: counts normalised by total counts of sample Seq I; for Percentage Seq I / Percentage Seq II: percentage of the pool; for Percentage Seq II: counts normalised by total counts of sample Seq II; for Percentage Average: percentage of the pool averaged across the two sequencing samples; for Counts Seq I / Counts Seq II: raw NGS counts of peptide sequence; for Counts Seq I: sequencing sample Seq I; for Counts Seq II: sequencing sample Seq II
Outline: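 Peptide–mRNA fusions were made by in vitro translation with a customised PURE express kit. The kit lacked release factor 1 and methionine and was supplemented with […] initiator tRNA carrying N-chloroacetyl-d-tyrosine. Thioether macrocycles were formed, then enriched and amplified over iterative rounds on CD59-biotin immobilised on streptavidin beads. NGS read counts per sequence were recorded after the 6th selection round.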

Sequence | Counts (raw counts for peptide sequence), Seq I | Counts (raw counts for peptide sequence), Seq II | Percentage of the pool, averaged across the two sequencing samples [%] | Percentage of the pool, Seq I [%] | Percentage of the pool, Seq II [%] | Percentage Seq I [%] | Percentage Seq II [%] | Percentage Average [%] | Counts Seq I | Counts Seq II
FVTGNRDHTSG | 60 | 4 | 0.011 | 0.014 | 0.009 |  |  |  |  | 
FVTGNRDNTRG | 80 | 6 | 0.016 | 0.018 | 0.014 |  |  |  |  | 
FVTGNRDRTRG |  |  |  |  |  | 0.019 | 0.026 | 0.022 | 81 | 11
FVTGNRDYTRG |  |  |  |  |  | 0.050 | 0.063 | 0.056 | 220 | 27
FVTGNREHTRG |  |  |  |  |  | 0.025 | 0.035 | 0.030 | 110 | 15
FVTGNRGHTRG |  |  |  |  |  | 0.024 | 0.016 | 0.020 | 105 | 7
FVTGNRNHTRG |  |  |  |  |  | 0.032 | 0.028 | 0.030 | 142 | 12
FVTGNSDHTRG | 52 | 4 | 0.011 | 0.012 | 0.009 |  |  |  |  | 
FVTGSRDHTRG |  |  |  |  |  | 0.074 | 0.053 | 0.063 | 322 | 23
FVTSNRDHTRG | 23 | 6 | 0.010 | 0.005 | 0.014 |  |  |  |  | 
GPRNECHSQFQN |  |  |  |  |  | 0.092 | 0.086 | 0.089 | 401 | 37
GRLNECHAIWP |  |  |  |  |  | 0.112 | 0.104 | 0.108 | 488 | 45
GRLNECHVIRP | 43 | 7 | 0.013 | 0.010 | 0.016 |  |  |  |  | 
GRLNECHVIWP |  |  |  |  |  | 0.317 | 0.302 | 0.310 | 1389 | 130
GRLNECHVIWS |  |  |  |  |  | 0.015 | 0.037 | 0.026 | 65 | 16
GRLNECHVTWP | 43 | 9 | 0.015 | 0.010 | 0.021 |  |  |  |  | 
GRRNECLSRTS | 68 | 3 | 0.011 | 0.016 | 0.007 |  |  |  |  | 
GRVRTCPVIV | 65 | 5 | 0.013 | 0.015 | 0.012 |  |  |  |  | 
GRYNECHFITS | 59 | 6 | 0.014 | 0.013 | 0.014 |  |  |  |  | 
GYKNECHSFNW | 40 | 6 | 0.012 | 0.009 | 0.014 |  |  |  |  | 
GYLNECHALYTR | 63 | 9 | 0.018 | 0.014 | 0.021 |  |  |  |  | 
GYLNECHTLYTL |  |  |  |  |  | 0.024 | 0.028 | 0.026 | 105 | 12
GYLNECHTLYTQ |  |  |  |  |  | 0.034 | 0.051 | 0.043 | 149 | 22

Sequence | Counts (raw counts for peptide sequence), Seq I | Counts (raw counts for peptide sequence), Seq II | Percentage of the pool, averaged across the two sequencing samples [%] | Percentage of the pool, Seq I [%] | Percentage of the pool, Seq II [%] | Percentage Seq I [%] | Percentage Seq II [%] | Percentage Average [%] | Counts Seq I | Counts Seq II
GYLNECHTLYTR |  |  |  |  |  | 0.629 | 0.645 | 0.637 | 2754 | 278
GYLNECWYGLS |  |  |  |  |  | 0.101 | 0.081 | 0.091 | 441 | 35
HAFGNRSFTRG | 82 | 5 | 0.015 | 0.019 | 0.012 |  |  |  |  | 
HAFGSRDIAYY | 52 | 5 | 0.012 | 0.012 | 0.012 |  |  |  |  | 
HAFGSRDITYY |  |  |  |  |  | 0.246 | 0.272 | 0.259 | 1078 | 117
HCRVRGSRNYT | 38 | 6 | 0.011 | 0.009 | 0.014 |  |  |  |  | 
HCWARGSRNYT |  |  |  |  |  | 0.041 | 0.035 | 0.038 | 180 | 15
HCWVRGGRNYT |  |  |  |  |  | 0.024 | 0.014 | 0.019 | 104 | 6
HCWVRGSRDYT |  |  |  |  |  | 0.028 | 0.046 | 0.037 | 122 | 20
HCWVRGSRNHT | 54 | 5 | 0.012 | 0.012 | 0.012 |  |  |  |  | 
HCWVRGSRNYA |  |  |  |  |  | 0.029 | 0.028 | 0.029 | 128 | 12
HCWVRGSRNYS | 46 | 5 | 0.011 | 0.011 | 0.012 |  |  |  |  | 
HCWVRGSRNYT |  |  |  |  |  | 2.570 | 2.548 | 2.559 | 11242 | 1098
HCWVRGSRSYT |  |  |  |  |  | 0.022 | 0.021 | 0.022 | 97 | 9
HQECWARGSRE | 68 | 5 | 0.014 | 0.016 | 0.012 |  |  |  |  | 
HSYGSSQIAYH | 74 | 8 | 0.018 | 0.017 | 0.019 |  |  |  |  | 
HVFGDRSFTRG |  |  |  |  |  | 0.028 | 0.026 | 0.027 | 124 | 11
HVFGNGSFTRG |  |  |  |  |  | 0.031 | 0.035 | 0.033 | 137 | 15
HVFGNKSFTRG | 63 | 9 | 0.018 | 0.014 | 0.021 |  |  |  |  | 
HVFGNRFFTRG |  |  |  |  |  | 0.031 | 0.039 | 0.035 | 135 | 17
HVFGNRPFTRG | 73 | 5 | 0.014 | 0.017 | 0.012 |  |  |  |  | 
HVFGNRSFARG | 78 | 6 | 0.016 | 0.018 | 0.014 |  |  |  |  | 
